Where two headings read alike, the source gives them in different places.
How the values were obtained:
AR1B = test: flow cytometry
AR1A = test: flow cytometry
HCV1 [1] = test: flow cytometry; conditions: read off a plot
AP33 [2] = test: flow cytometry or ELISA; conditions: read off a plot
A4 [3] = test: flow cytometry or ELISA; conditions: read off a plot
HCV1 [4] = test: flow cytometry or ELISA; conditions: read off a plot
AP33 [5] = test: flow cytometry; conditions: read off a plot
[6] = molecular target: recombinant CD81-LEL Fc-fusion protein; test: ELISA; conditions: first point of the titration, dilution 1/1; parent: est. 0.42; read off a plot
[7] = molecular target: CD81-Fc (K124T), a mutant that reduces CD81 dimerization (UniProt P60033); test: ELISA; conditions: first point of the titration, dilution 1/1; parent: est. 0.65; read off a plot
HCV1 [8] = test: ELISA; conditions: first point of the titration, dilution 1/100; parent: est. 1.3; read off a plot
AR3A = test: flow cytometry; conditions: read off a plot
AR2A = test: flow cytometry; conditions: read off a plot
[9] = molecular target: soluble WT E2c (E2 core domain); test: ELISA; conditions: first point of the titration, dilution 1/1; parent: est. 0.42; read off a plot
A4 [10] = test: flow cytometry; conditions: read off a plot
[11] = molecular target: E1E2 I622A, ELISA antigen (transfected cell lysate) (hepatitis C virus genotype 1a, strain H77); test: ELISA
[12] = molecular target: E1E2 F627A, ELISA antigen (transfected cell lysate) (hepatitis C virus genotype 1a, strain H77); test: ELISA
[13] = molecular target: E1E2 G278A (H77 alanine-scanning library clone) (hepatitis C virus genotype 1a, strain H77); test: flow cytometry on cells
[14] = molecular target: E1E2 Y276A (H77 alanine-scanning library clone) (hepatitis C virus genotype 1a, strain H77); test: flow cytometry on cells
[15] = molecular target: E1E2 W616A (H77 alanine-scanning library clone) (hepatitis C virus genotype 1a, strain H77); test: flow cytometry on cells
[16] = molecular target: E1E2 D279A (H77 alanine-scanning library clone) (hepatitis C virus genotype 1a, strain H77); test: flow cytometry on cells
[17] = molecular target: E1E2 I622A (H77 alanine-scanning library clone) (hepatitis C virus genotype 1a, strain H77); test: flow cytometry on cells
[18] = molecular target: E1E2 Y613A (plasmid H77c, no V5 tag) (hepatitis C virus genotype 1a, strain H77); test: flow cytometry on cells

Chain of CD81-Fc (K124T), a mutant that reduces CD81 dimerization (P60033 whole entry K124T, looked up, tested part not stated): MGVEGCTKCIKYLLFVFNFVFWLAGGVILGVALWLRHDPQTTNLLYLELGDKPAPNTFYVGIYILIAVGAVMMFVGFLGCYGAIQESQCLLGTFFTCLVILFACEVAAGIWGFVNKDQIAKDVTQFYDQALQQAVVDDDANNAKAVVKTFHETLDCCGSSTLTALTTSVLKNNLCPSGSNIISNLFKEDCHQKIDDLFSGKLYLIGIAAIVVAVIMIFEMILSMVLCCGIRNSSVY

Substance: wild-type HCV E1E2 (genotype 1a, strain H77) expression construct with C-terminal V5 epitope tag P544A
- percent of parent (AR1B; read off a plot): 5 % of WT
- percent of parent (AR1A; read off a plot): 9 % of WT
- percent of parent (HCV1 [1]): 45 % of WT

Substance: wild-type HCV E1E2 (genotype 1a, strain H77) expression construct with C-terminal V5 epitope tag C503A
- percent of parent (AR1A; read off a plot): 200 % of WT

Substance: wild-type HCV E1E2, plasmid H77c (no V5 tag) Q336A
- percent of parent (AP33 [2]): 80 % of WT
- percent of parent (A4 [3]): 88 % of WT
- percent of parent (HCV1 [4]): 88 % of WT

Substance: wild-type HCV E1E2 (genotype 1a, strain H77) expression construct with C-terminal V5 epitope tag Y632A
- percent of parent (AR1A): < 0 % of WT

Substance: wild-type HCV E1E2, plasmid H77c (no V5 tag) R237A
- percent of parent (AP33 [2]): 110 % of WT
- percent of parent (A4 [3]): 82 % of WT
- percent of parent (HCV1 [4]): 105 % of WT

Substance: wild-type HCV E1E2, plasmid H77c (no V5 tag) C452A
- percent of parent (AP33 [2]): 60 % of WT
- percent of parent (A4 [3]): 93 % of WT
- percent of parent (HCV1 [4]): 77 % of WT

Substance: wild-type HCV E1E2, plasmid H77c (no V5 tag) D346A
- percent of parent (AP33 [2]): 100 % of WT
- percent of parent (A4 [3]): 95 % of WT
- percent of parent (HCV1 [4]): 98 % of WT

Substance: wild-type HCV E1E2 (genotype 1a, strain H77) expression construct with C-terminal V5 epitope tag Y485A
- percent of parent (AP33 [5]): 104 % of WT
- percent of parent (AR1A; read off a plot): 43 % of WT

Substance: soluble WT E2c (E2 core domain) I622A; F627A
- response [6]: 0.94 OD450
- response [7]: 1.2 OD450
- response (HCV1 [8]): 1.3 OD450

Substance: wild-type HCV E1E2 (genotype 1a, strain H77) expression construct with C-terminal V5 epitope tag G440A
- percent of parent (AR3A): 20 % of WT
- percent of parent (AP33 [5]): 81 % of WT
- percent of parent (AR1A; read off a plot): 84 % of WT
- percent of parent (AR2A): 82 % of WT
- percent of parent (HCV1 [1]): 84 % of WT

Substance: recombinant CD81-LEL Fc-fusion protein K124T
- response [9]: 0.65 OD450

Substance: wild-type HCV E1E2, plasmid H77c (no V5 tag) K562A
- percent of parent (AP33 [2]): 75 % of WT
- percent of parent (A4 [3]): 77 % of WT
- percent of parent (HCV1 [4]): 95 % of WT

Substance: wild-type HCV E1E2 (genotype 1a, strain H77) expression construct with C-terminal V5 epitope tag L438A
- percent of parent (AP33 [5]): 76 % of WT
- percent of parent (HCV1 [1]): 75 % of WT

Substance: wild-type HCV E1E2 (genotype 1a, strain H77) expression construct with C-terminal V5 epitope tag P545A
- percent of parent (AR1B; read off a plot): 6 % of WT
- percent of parent (AR1A; read off a plot): 18 % of WT
- percent of parent (HCV1 [1]): 92 % of WT

Substance: wild-type HCV E1E2, plasmid H77c (no V5 tag) W712A
- percent of parent (AP33 [2]): 81 % of WT
- percent of parent (A4 [3]): 80 % of WT
- percent of parent (HCV1 [4]): 82 % of WT

Substance: wild-type HCV E1E2, plasmid H77c (no V5 tag) Y624A
- percent of parent (AP33 [2]): 38 % of WT
- percent of parent (A4 [3]): 43 % of WT

Substance: wild-type HCV E1E2 (genotype 1a, strain H77) expression construct with C-terminal V5 epitope tag G547A
- percent of parent (AR1B; read off a plot): 22 % of WT
- percent of parent (AR1A; read off a plot): 18 % of WT
- percent of parent (A4 [10]): 74 % of WT
- percent of parent (HCV1 [1]): 44 % of WT

Substance: recombinant CD81-LEL Fc-fusion protein (Fc fusion)
- enhancement of binding over wild type [11]: 56%
- enhancement of binding over wild type [12]: 13%
- % CD81 binding (of wild type) [13]: 50%
- % CD81 binding (of wild type) [14]: 50%
- % binding activity [15]: < 3%
- % of wild-type reactivity (% of wild-type reactivity) [15]: < 25
- % CD81 binding (of wild type) [16]: 48%
- enhancement of binding over wild type [17]: 49%
- % binding activity [18]: < 3%
- % of wild-type reactivity (% of wild-type reactivity) [18]: < 25

Substance: wild-type HCV E1E2 (genotype 1a, strain H77) expression construct with C-terminal V5 epitope tag G495A
- percent of parent (AR1A; read off a plot): 26 % of WT
- percent of parent (HCV1 [1]): 92 % of WT

Substance: soluble WT E2c (E2 core domain) I622A
- response [6]: 1.4 OD450
- response [7]: 1.5 OD450
- response (HCV1 [8]): 1.3 OD450

Substance: soluble WT E2c (E2 core domain) F627A
- response [6]: 0.38 OD450
- response [7]: 0.62 OD450
- response (HCV1 [8]): 1.3 OD450

Substance: wild-type HCV E1E2 (genotype 1a, strain H77) expression construct with C-terminal V5 epitope tag W549A
- percent of parent (AR1B): < 0 % of WT
- percent of parent (AR1A): < 0 % of WT

Substance: wild-type HCV E1E2, plasmid H77c (no V5 tag) C272A
- percent of parent (AP33 [2]): 85 % of WT
- percent of parent (A4 [3]): 93 % of WT
- percent of parent (HCV1 [4]): 98 % of WT

Substance: wild-type HCV E1E2 (genotype 1a, strain H77) expression construct with C-terminal V5 epitope tag W437A
- percent of parent (AP33 [5]): 77 % of WT
- percent of parent (HCV1 [1]): 95 % of WT

Substance: wild-type HCV E1E2 (genotype 1a, strain H77) expression construct with C-terminal V5 epitope tag T518A
- percent of parent (AP33 [5]): 106 % of WT
- percent of parent (AR1A; read off a plot): 100 % of WT
- percent of parent (AR2A): 140 % of WT
- percent of parent (HCV1 [1]): 100 % of WT

Substance: wild-type HCV E1E2 (genotype 1a, strain H77) expression construct with C-terminal V5 epitope tag N548A
- percent of parent (AR1B): < 0 % of WT
- percent of parent (AR1A; read off a plot): 23 % of WT

Substance: wild-type HCV E1E2, plasmid H77c (no V5 tag) T396A
- percent of parent (AP33 [2]): 68 % of WT
- percent of parent (A4 [3]): 85 % of WT
- percent of parent (HCV1 [4]): 98 % of WT

Reference: paper PMC5749897
